These results are taken from patent US20020090382A1 (UNIVERSITY OF PITTSBURGH OF THE COMMONWEALTH SYSTEM OF …, published 2002).

The target of test [1] is T1, HveA(200t) (UniProt Q92956 39-200).
T1 construct: Purified soluble receptor coated on ELISA plates; also called recombinant HveA; soluble gD receptor HveA
T1 sequence: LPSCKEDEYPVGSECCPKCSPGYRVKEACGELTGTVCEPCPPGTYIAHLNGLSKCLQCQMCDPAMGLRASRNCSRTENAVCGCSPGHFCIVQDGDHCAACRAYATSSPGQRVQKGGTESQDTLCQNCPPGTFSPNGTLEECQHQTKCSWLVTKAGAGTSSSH
Kind of test: ELISA, peptide on coated HveA(200t), antiserum R11. For orientation: An ELISA detects its analyte on a solid surface through an enzyme-linked reagent.

Test [2] deals with T2, HveC(346t) (UniProt Q15223 31-346).
T2 construct: Purified soluble receptor coated on ELISA plates; also called recombinant HveC; soluble gD receptor HveC
T2 sequence: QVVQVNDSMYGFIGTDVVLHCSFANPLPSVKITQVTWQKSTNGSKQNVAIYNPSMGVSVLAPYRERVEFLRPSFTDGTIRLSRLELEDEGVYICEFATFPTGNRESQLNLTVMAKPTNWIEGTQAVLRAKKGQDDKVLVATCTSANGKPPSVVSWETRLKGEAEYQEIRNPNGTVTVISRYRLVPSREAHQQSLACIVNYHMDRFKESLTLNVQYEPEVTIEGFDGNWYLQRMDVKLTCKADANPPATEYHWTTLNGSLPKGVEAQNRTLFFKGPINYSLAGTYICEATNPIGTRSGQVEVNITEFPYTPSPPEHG
Kind of test: ELISA, peptide on coated HveC(346t), antiserum R11.

With ASLKMADPNRFRGKDLPVLDQ (synthetic peptide) [Polypeptide A1], the binding result in test [1] was “no binding (tested: between 1 µM and 1000 µM)”; in test [2] it was “no binding (tested: between 1 µM and 1000 µM)”.
